Source: paper PMC5315667 (The Plant journal : for cell and molecular biology, 2017)

What was measured:
VvEG16 [1] = target: T1, VvEG16 (Vitis vinifera, UniProt F6I323, E88A/DEL151-151); test: X-ray crystallography, […] Å; format: binding; details: alpha-anomer, negative subsites of chain A
VvEG16 [2] = target: T1, VvEG16; test: X-ray crystallography, […] Å; format: binding; details: negative subsites of chain A; from tXyGO mixture
VvEG16 [3] = target: VvEG16 (Vitis vinifera, UniProt F6I323, C21S/DEL151-151/C188S); test: X-ray crystallography, […] Å; format: binding; details: co-crystallised with 5 mM; negative subsites
[4] = substrate: O=[N+]([O-])c1ccc(O[C@@H]2O[C@H](CO)[C@@H](O[C@@H]3O[C@H](CO)[C@@H](O[C@@H]4O[C@H](CO)[C@@H](O)[C@H](O)[C@H]4O)[C@H](O)[C@H]3O)[C@H](O)[C@H]2O)c(Cl)c1; test: chromogenic substrate hydrolysis, CNP release; format: biochemical, Vitis vinifera; details: 20 mM sodium citrate, pH 6, 30°C
[5] = substrate: O=[N+]([O-])c1ccc(O[C@@H]2O[C@H](CO)[C@@H](O[C@@H]3O[C@H](CO[C@H]4OC[C@@H](O)[C@H](O)[C@H]4O)[C@@H](O[C@@H]4O[C@H](CO[C@H]5OC[C@@H](O)[C@H](O)[C@H]5O)[C@@H](O[C@@H]5O[C@H](CO[C@H]6OC[C@@H](O)[C@H](O)[C@H]6O)[C@@H](O)[C@H](O)[C@H]5O)[C@H](O)[C@H]4O)[C@H](O)[C@H]3O)[C@H](O)[C@H]2O)c(Cl)c1; test: chromogenic substrate hydrolysis, CNP release; format: biochemical, Vitis vinifera; details: 20 mM sodium citrate, pH 6, 30°C
[6] = substrate: O=[N+]([O-])c1ccc(O[C@@H]2O[C@H](CO)[C@@H](O[C@@H]3O[C@H](CO)[C@@H](O)[C@H](O)[C@H]3O)[C@H](O)[C@H]2O)c(Cl)c1; test: chromogenic substrate hydrolysis, CNP release; format: biochemical, Vitis vinifera; details: 20 mM sodium citrate, pH 6, 30°C
[7] = substrate: O=[N+]([O-])c1ccc(O[C@@H]2O[C@H](CO)[C@@H](O[C@@H]3O[C@H](CO)[C@@H](O)[C@H](O)[C@H]3O)[C@H](O)[C@H]2O)cc1; test: chromogenic substrate hydrolysis, PNP release; format: biochemical, Vitis vinifera; details: 20 mM sodium citrate, pH 6, 30°C
[8] = substrate: O=[N+]([O-])c1ccc(O[C@@H]2O[C@H](CO)[C@@H](O[C@@H]3O[C@H](CO)[C@@H](O[C@@H]4O[C@H](CO)[C@@H](O)[C@H](O)[C@H]4O)[C@H](O)[C@H]3O)[C@H](O)[C@H]2O)cc1; test: chromogenic substrate hydrolysis, PNP release; format: biochemical, Vitis vinifera; details: 20 mM sodium citrate, pH 6, 30°C
purified protein [9] = substrate: O=[N+]([O-])c1ccc(O[C@@H]2O[C@H](CO)[C@@H](O[C@@H]3O[C@H](CO)[C@@H](O)[C@H](O)[C@H]3O)[C@H](O)[C@H]2O)c([N+](=O)[O-])c1; test: purified protein; details: 20 mM sodium citrate, pH 6, 30°C
purified protein [10] = substrate: O=[N+]([O-])c1ccc(O[C@@H]2O[C@H](CO)[C@@H](O[C@@H]3O[C@H](CO)[C@@H](O[C@@H]4O[C@H](CO)[C@@H](O)[C@H](O)[C@H]4O)[C@H](O)[C@H]3O)[C@H](O)[C@H]2O)c([N+](=O)[O-])c1; test: purified protein; details: 20 mM sodium citrate, pH 6, 30°C

OC[C@H]1O[C@@H](O[C@@H]2[C@@H](O)[C@H](O[C@H]3[C@H](O)[C@@H](O)[C@H](O[C@H]4[C@H](O)[C@@H](O)C(O)O[C@@H]4CO)O[C@@H]3CO)O[C@H](CO)[C@H]2O)[C@H](O)[C@@H](O)[C@@H]1O (stereo partly drawn) [G3GGG, β-D-Glcp-(1,3)-β-D-Glcp-(1,4)-β-D-Glcp-(1,4)-β-D-Glcp]
X-ray crystallography, 1.65 Å (VvEG16 [1]): presence of the α-anomer of G3GGG in the negative subsites

OC[C@H]1OC(O)[C@H](O)[C@@H](O)[C@@H]1O[C@@H]1O[C@H](CO[C@H]2OC[C@@H](O)[C@H](O)[C@H]2O)[C@@H](O[C@@H]2O[C@H](CO[C@H]3OC[C@@H](O)[C@H](O)[C@H]3O)[C@@H](O[C@@H]3O[C@H](CO[C@H]4OC[C@@H](O)[C@H](O)[C@H]4O)[C@@H](O)[C@H](O)[C@H]3O)[C@H](O)[C@H]2O)[C@H](O)[C@H]1O (stereo partly drawn) [XXXG]
X-ray crystallography, 1.79 Å (VvEG16 [2]): Chain A additionally contained an apparent XXXG moiety in the negative subsites
X-ray crystallography, 1.59 Å (VvEG16 [3]): Fortuitous crystallization of this variant in complex with the heptasaccharide XXXG in the negative subsites

B1: VvEG16 (Vitis vinifera) (protein)
chain: MADPSLHHEAQPLKFIAVDYCPESCTHSPESSTITLTFDHRGGSRWRSTTRFQYGTFSSLIQCPKGNTSGLNFNIYLSSLEGDKSQDEIDFEFLGKDKRIVQTNYYTAGTGNREAIHDLGFDCSDGFHEYVIKWGPDLIQWLIDGKVIRSVVRADGEGFPQKPMFLYASVWDASYIDEGRWTGPYVGCDAPYICLYKNVNVPVGTAVE
Km [4]: 800 ± 100 µM
kcat [4]: 0.0163 ± 0.0005 s⁻¹
kcat/Km [4]: 20 M⁻¹ s⁻¹
Km [5]: 1100 ± 300 µM
kcat [5]: 0.2 ± 0.00833 s⁻¹
kcat/Km [5]: 180 M⁻¹ s⁻¹

B2: VvEG16 (Vitis vinifera; DEL151-151) (protein)
chain: MADPSLHHEAQPLKFIAVDYCPESCTHSPESSTITLTFDHRGGSRWRSTTRFQYGTFSSLIQCPKGNTSGLNFNIYLSSLEGDKSQDEIDFEFLGKDKRIVQTNYYTAGTGNREAIHDLGFDCSDGFHEYVIKWGPDLIQWLIDGKVIRSVRADGEGFPQKPMFLYASVWDASYIDEGRWTGPYVGCDAPYICLYKNVNVPVGTAVE
Km [6]: 3500 ± 400 µM
kcat [6]: 0.0075 ± 0.000333 s⁻¹
kcat/Km [6]: 2.1 M⁻¹ s⁻¹
Km [4]: 1100 ± 100 µM
kcat [4]: 0.0172 ± 0.000667 s⁻¹
kcat/Km [4]: 16 M⁻¹ s⁻¹
Km [7]: 5900 ± 600 µM
kcat [7]: 0.000383 ± 3.33e-05 s⁻¹
kcat/Km [7]: 0.065 M⁻¹ s⁻¹
Km [8]: 2800 ± 200 µM
kcat [8]: 0.0025 ± 0.0001 s⁻¹
kcat/Km [8]: 0.9 M⁻¹ s⁻¹
Km (purified protein [9]): 2000 ± 200 µM
kcat (purified protein [9]): 0.333 ± 0.0167 s⁻¹
kcat/Km (purified protein [9]): 170 M⁻¹ s⁻¹
Km (purified protein [10]): 800 ± 60 µM
kcat (purified protein [10]): 1.58 ± 0.0333 s⁻¹
kcat/Km (purified protein [10]): 2000 M⁻¹ s⁻¹
